Source: publication PMC10057847, “Precision engineering of biological function with large-scale measurements and machine learning” (PLOS ONE, 2023)
Values joined by “and” are separate entries in the source; they are usually repeats but may differ in a detail not shown here. Identical values can stand only once.

B1: pVER-IPTG-001: LacI variant: Q55H D130E V192A T258I D267N Y273H N333I (protein, UniProt P03023 1-360, looked up, variant Q55H D130E V192A T258I D267N Y273H N333I)
Lactose operon repressor: MKPVTLYDVAEYAGVSYQTVSRVVNQASHVSAKTREKVEAAMAELNYIPNRVAQHLAGKQSLLIGVATSSLALHAPSQIVAAIKSRADQLGASVVVSMVERSGVEACKAAVHNLLAQRVSGLIINYPLDEQDAIAVEAACTNVPALFLDVSDQTPINSIIFSHEDGTRLGVEHLVALGHQQIALLAGPLSSASARLRLAGWHKYLTRNQIQPIAEREGDWSAMSGFQQTMQMLNEGIVPTAMLVANDQMALGAMRAIIESGLRVGANISVVGHDDTEDSSCYIPPLTTIKQDFRLLGQTSVDRLLQLSQGQAVKGNQLLPVSLVKRKTTLAPITQTASPRALADSLMQLARQVSRLESGQ
B2: pVER-IPTG-WT(Q291L): LacI variant: Q291L (protein, UniProt P03023 1-360, looked up, variant Q291L)
Lactose operon repressor: MKPVTLYDVAEYAGVSYQTVSRVVNQASHVSAKTREKVEAAMAELNYIPNRVAQQLAGKQSLLIGVATSSLALHAPSQIVAAIKSRADQLGASVVVSMVERSGVEACKAAVHNLLAQRVSGLIINYPLDDQDAIAVEAACTNVPALFLDVSDQTPINSIIFSHEDGTRLGVEHLVALGHQQIALLAGPLSSVSARLRLAGWHKYLTRNQIQPIAEREGDWSAMSGFQQTMQMLNEGIVPTAMLVANDQMALGAMRAITESGLRVGADISVVGYDDTEDSSCYIPPLTTIKLDFRLLGQTSVDRLLQLSQGQAVKGNQLLPVSLVKRKTTLAPNTQTASPRALADSLMQLARQVSRLESGQ
B3: pVER-IPTG-WT(S70R/V271M): LacI variant: S70R V271M (protein, UniProt P03023 1-360, looked up, variant S70R V271M)
Lactose operon repressor: MKPVTLYDVAEYAGVSYQTVSRVVNQASHVSAKTREKVEAAMAELNYIPNRVAQQLAGKQSLLIGVATSRLALHAPSQIVAAIKSRADQLGASVVVSMVERSGVEACKAAVHNLLAQRVSGLIINYPLDDQDAIAVEAACTNVPALFLDVSDQTPINSIIFSHEDGTRLGVEHLVALGHQQIALLAGPLSSVSARLRLAGWHKYLTRNQIQPIAEREGDWSAMSGFQQTMQMLNEGIVPTAMLVANDQMALGAMRAITESGLRVGADISVMGYDDTEDSSCYIPPLTTIKQDFRLLGQTSVDRLLQLSQGQAVKGNQLLPVSLVKRKTTLAPNTQTASPRALADSLMQLARQVSRLESGQ
B4: pVER-IPTG-206: LacI variant: V95M A337T (protein, UniProt P03023 1-360, looked up, variant V95M A337T)
Lactose operon repressor: MKPVTLYDVAEYAGVSYQTVSRVVNQASHVSAKTREKVEAAMAELNYIPNRVAQQLAGKQSLLIGVATSSLALHAPSQIVAAIKSRADQLGASVMVSMVERSGVEACKAAVHNLLAQRVSGLIINYPLDDQDAIAVEAACTNVPALFLDVSDQTPINSIIFSHEDGTRLGVEHLVALGHQQIALLAGPLSSVSARLRLAGWHKYLTRNQIQPIAEREGDWSAMSGFQQTMQMLNEGIVPTAMLVANDQMALGAMRAITESGLRVGADISVVGYDDTEDSSCYIPPLTTIKQDFRLLGQTSVDRLLQLSQGQAVKGNQLLPVSLVKRKTTLAPNTQTTSPRALADSLMQLARQVSRLESGQ
B5: pVER-IPTG-008: LacI variant: S61L I237T T258S A266T I289F R351* (protein, UniProt P03023 1-360, looked up, variant S61L I237T T258S A266T I289F R351*)
Lactose operon repressor: MKPVTLYDVAEYAGVSYQTVSRVVNQASHVSAKTREKVEAAMAELNYIPNRVAQQLAGKQLLLIGVATSSLALHAPSQIVAAIKSRADQLGASVVVSMVERSGVEACKAAVHNLLAQRVSGLIINYPLDDQDAIAVEAACTNVPALFLDVSDQTPINSIIFSHEDGTRLGVEHLVALGHQQIALLAGPLSSVSARLRLAGWHKYLTRNQIQPIAEREGDWSAMSGFQQTMQMLNEGTVPTAMLVANDQMALGAMRAISESGLRVGTDISVVGYDDTEDSSCYIPPLTTFKQDFRLLGQTSVDRLLQLSQGQAVKGNQLLPVSLVKRKTTLAPNTQTASPRALADSLMQLAQVSRLESGQ
B6: pVER-IPTG-004(V136E): LacI variant: A87P V136E V301M E357G (protein, UniProt P03023 1-360, looked up, variant A87P V136E V301M E357G)
Lactose operon repressor: MKPVTLYDVAEYAGVSYQTVSRVVNQASHVSAKTREKVEAAMAELNYIPNRVAQQLAGKQSLLIGVATSSLALHAPSQIVAAIKSRPDQLGASVVVSMVERSGVEACKAAVHNLLAQRVSGLIINYPLDDQDAIAEEAACTNVPALFLDVSDQTPINSIIFSHEDGTRLGVEHLVALGHQQIALLAGPLSSVSARLRLAGWHKYLTRNQIQPIAEREGDWSAMSGFQQTMQMLNEGIVPTAMLVANDQMALGAMRAITESGLRVGADISVVGYDDTEDSSCYIPPLTTIKQDFRLLGQTSMDRLLQLSQGQAVKGNQLLPVSLVKRKTTLAPNTQTASPRALADSLMQLARQVSRLGSGQ
B7: pVER-IPTG-081: LacI variant: P285S V301M S308P M347V (protein, UniProt P03023 1-360, looked up, variant P285S V301M S308P M347V)
Lactose operon repressor: MKPVTLYDVAEYAGVSYQTVSRVVNQASHVSAKTREKVEAAMAELNYIPNRVAQQLAGKQSLLIGVATSSLALHAPSQIVAAIKSRADQLGASVVVSMVERSGVEACKAAVHNLLAQRVSGLIINYPLDDQDAIAVEAACTNVPALFLDVSDQTPINSIIFSHEDGTRLGVEHLVALGHQQIALLAGPLSSVSARLRLAGWHKYLTRNQIQPIAEREGDWSAMSGFQQTMQMLNEGIVPTAMLVANDQMALGAMRAITESGLRVGADISVVGYDDTEDSSCYIPSLTTIKQDFRLLGQTSMDRLLQLPQGQAVKGNQLLPVSLVKRKTTLAPNTQTASPRALADSLVQLARQVSRLESGQ
B8: pVER-IPTG-144: LacI variant: V15I F161I A266T K290R M347I (protein, UniProt P03023 1-360, looked up, variant V15I F161I A266T K290R M347I)
Lactose operon repressor: MKPVTLYDVAEYAGISYQTVSRVVNQASHVSAKTREKVEAAMAELNYIPNRVAQQLAGKQSLLIGVATSSLALHAPSQIVAAIKSRADQLGASVVVSMVERSGVEACKAAVHNLLAQRVSGLIINYPLDDQDAIAVEAACTNVPALFLDVSDQTPINSIIISHEDGTRLGVEHLVALGHQQIALLAGPLSSVSARLRLAGWHKYLTRNQIQPIAEREGDWSAMSGFQQTMQMLNEGIVPTAMLVANDQMALGAMRAITESGLRVGTDISVVGYDDTEDSSCYIPPLTTIRQDFRLLGQTSVDRLLQLSQGQAVKGNQLLPVSLVKRKTTLAPNTQTASPRALADSLIQLARQVSRLESGQ
B9: pVER-IPTG-138: LacI variant: S28G T34M Q60R A81S E100K L148V S221N V271L (protein, UniProt P03023 1-360, looked up, variant S28G T34M Q60R A81S E100K L148V S221N V271L)
Lactose operon repressor: MKPVTLYDVAEYAGVSYQTVSRVVNQAGHVSAKMREKVEAAMAELNYIPNRVAQQLAGKRSLLIGVATSSLALHAPSQIVSAIKSRADQLGASVVVSMVKRSGVEACKAAVHNLLAQRVSGLIINYPLDDQDAIAVEAACTNVPALFVDVSDQTPINSIIFSHEDGTRLGVEHLVALGHQQIALLAGPLSSVSARLRLAGWHKYLTRNQIQPIAEREGDWNAMSGFQQTMQMLNEGIVPTAMLVANDQMALGAMRAITESGLRVGADISVLGYDDTEDSSCYIPPLTTIKQDFRLLGQTSVDRLLQLSQGQAVKGNQLLPVSLVKRKTTLAPNTQTASPRALADSLMQLARQVSRLESGQ
B10: pVER-IPTG-084: LacI variant: A92I S269T N333H L346* (protein, UniProt P03023 1-360, looked up, variant A92I S269T N333H L346*)
Lactose operon repressor: MKPVTLYDVAEYAGVSYQTVSRVVNQASHVSAKTREKVEAAMAELNYIPNRVAQQLAGKQSLLIGVATSSLALHAPSQIVAAIKSRADQLGISVVVSMVERSGVEACKAAVHNLLAQRVSGLIINYPLDDQDAIAVEAACTNVPALFLDVSDQTPINSIIFSHEDGTRLGVEHLVALGHQQIALLAGPLSSVSARLRLAGWHKYLTRNQIQPIAEREGDWSAMSGFQQTMQMLNEGIVPTAMLVANDQMALGAMRAITESGLRVGADITVVGYDDTEDSSCYIPPLTTIKQDFRLLGQTSVDRLLQLSQGQAVKGNQLLPVSLVKRKTTLAPHTQTASPRALADSMQLARQVSRLESGQ

System: eYFP under the control of the lactose operator (lacO)
Test: in vivo dose-response curves of LacI variants to IPTG measured with flow cytometry (eYFP output), fit to the Hill equation
Format: cell-based, E. coli
Settings: for geo_mean: geometric mean of the YFP signal measured by cytometry: clone A; for log_ginf: the base-10 logarithm of G∞ (in MEF): saturating output; for log_ginf: the base-10 logarithm of G∞ (in MEF) / log_g0: the base-10 logarithm of G0 (in MEF): value is log10; for n: the Hill coefficient: IPTG dose-response; for log_g0: the base-10 logarithm of G0 (in MEF): basal output
Description: Dose-response curves were measured with flow cytometry using E. coli MG1655Δlac transformed with variants of the pVER plasmid, described previously. The plasmid contained different variants of the lacI coding DNA sequence (CDS), as described in the text, and an expression cassette with enhanced yellow fluorescent protein (eYFP) under the control of the lactose operator (lacO). The lacI CDS was verified with Sanger sequencing for each variant.
All cultures were grown in a rich M9 media (3 g/L KH2PO4, 6.78 g/L Na2HPO4, 0.5 g/L NaCl, 1 g/L NH4Cl, 0.1 mmol/L CaCl2, 2 mmol/L MgSO4, 4% glycerol, and 20 g/L casamino acids) supplemented with 50 μg/mL kanamycin.
For flow cytometry measurements, E. coli cultures were grown in a laboratory automation system that included an automated liquid handler (Hamilton, STAR), an automated plate sealer (4titude, a4S), an automated de-sealer (Brooks, XPeel), and two multi-mode plate readers (BioTek, Neo2SM).
Cultures were grown in clear polystyrene 96-well plates with 1.1 mL square wells (4titude, 4ti-0255). The culture volume per well was 0.5 mL. Before incubation, each 96-well growth plate was sealed by the automated plate sealer with a gas permeable membrane (4titude, 4ti-0598). Growth plates were incubated in one of the multi-mode plate readers at 37°C with a 1°C gradient applied from the bottom to the top of the incubation chamber to minimize condensation on the inside of the membrane. The plate readers were set for double-orbital shaking at 807 cycles per minute. Optical density at 600 nm (OD600) was measured every 5 minutes during incubation, with continuous shaking applied between measurements (optical density at 700 nm and YFP fluorescence were also measured every 5 minutes). After incubation, the automated de-sealer was used to remove the gas-permeable membrane from each 96-well plate to enable automated passaging of cultures and sample preparation for flow cytometry measurements.
For each measurement, starter cultures were prepared from glycerol freezer stock in 5 mL of rich M9 media in a 14 mL snap-cap culture tubes. Starter cultures were incubated at 37°C with orbital shaking at 300 rpm for between 4 h and 24 h prior to loading the automation system. The automation system then prepared 96-well growth plates, sealed and de-sealed the growth plates, incubated the growth plates, and prepared flow cytometry sample plates. The automated culture protocol consisted of the following steps: […]

[1] = Hill fit of cytometry data, posterior mean

Molecule | log_ginf: the base-10 logarithm of G∞ (in MEF) [1] [MEF] | n: the Hill coefficient (Hill fit of cytometry data) | log_g0: the base-10 logarithm of G0 (in MEF) [1] [MEF] | other results
B1 |  |  |  | geo_mean: geometric mean of the YFP signal measured by cytometry (IPTG 0.0 μmol/L): 26059.303161112988 and 23664.3303473106; geo_mean: geometric mean of the YFP signal measured by cytometry (IPTG 2.0 μmol/L): 26140.44981266789; geo_mean: geometric mean of the YFP signal measured by cytometry (IPTG 4.0 μmol/L): 26093.69376618197; geo_mean: geometric mean of the YFP signal measured by cytometry (IPTG 8.0 μmol/L): 26130.45714766927
B2 | 4.407 |  |  | 
B3 | 4.268 | 1.459 |  | 
B4 |  | 1.594 |  | 
B5 | 3.274 | 1.488 | 4.293 | 
B6 | 1.925 | 1.631 | 4.54 | 
B7 | 4.489 |  |  | 
B8 |  | 1.459 |  | 
B9 | 4.407 |  |  | 
B10 | 4.457 | 1.53 | 3.264 | EC50 (IPTG as ligand, Hill fit of cytometry data, posterior mean, read-out: log_ec50: the base-10 logarithm of EC50 (converted)): 1520 nM
